In publication PMC11564096, “Structural and mechanistic insights into Streptococcus pneumoniae NADPH oxidase” (Nature Structural & Molecular Biology, 2024) one finds Km and kcat data, which are given here for one protein.

A word on the Km: it is the concentration of substrate that gives half-maximal velocity. A word on the kcat: it is the number of substrate molecules converted per active site and unit of time at saturation.

Substrate in this data set: NC(=O)C1=CN([C@@H]2O[C@H](COP(=O)(O)OP(=O)(O)OC[C@H]3O[C@@H](n4cnc5c(N)ncnc54)[C@H](O)[C@@H]3O)[C@@H](O)[C@H]2O)C=CC1
Put plainly: purified protein. Type of data set: biochemical, Streptococcus pneumoniae. The settings on record: 100 µM bovine cytochrome c, 0.1 µM SpNOX, 1 µM FAD, 50 mM Tris pH 7.0, 250 mM NaCl, room temperature, aerobic.

B1: SpNOX (Streptococcus pneumoniae NOX) (Streptococcus pneumoniae R6) (protein)
chain: EFSMKSVKGLLFIIASFILTLLTWMNTSPQFMIPGLALTSLSLTFILATRLPLLESWFHSLEKVYTVHKFTAFLSIILLIFHNFSMGGLWGSRLAAQFGNLAIYIFASIILVAYLGKYIQYEAWRWIHRLVYLAYILGLFHIYMIMGNRLLTFNLLSFLVGSYALLGLLAGFYIIFLYQKISFPYLGKITHLKRLNHDTREIQIHLSRPFNYQSGQFAFLKIFQEGFESAPHPFSISGGHGQTLYFTVKTSGDHTKNIYDNLQAGSKVTLDRAYGHMIIEEGRENQVWIAGGIGITPFISYIREHPILDKQVHFYYSFRGDENAVYLDLLRNYAQKNPNFELHLIDSTKDGYLNFEQKEVPEHATVYMCGPISMMKALAKQIKKQNPKTELIYEGFKFK
notes: residues 2-400, N-terminal 6xHis-PreScission tag cleaved, E. coli C41(DE3), LMNG micelles, monomer, 46 kDa, two b-type hemes and FAD
With B1, the Michaelis constant (Km) was 3.41 µM and the kcat turned out to be 3.33 s⁻¹.
